What is called Km is the substrate concentration at which the rate is half of its maximum. Usually kcat stands for the number of substrate molecules converted per active site and unit of time at saturation. In general, kcat/Km refers to the turnover number divided by the Michaelis constant.

The test system of series [1] is N[C@@H](Cc1c[nH]c2ccccc12)C(=O)O. Nature of the series: purified protein. The note with it: 100 mM KPi pH 7.8, 30 °C, 0.05 mM pyridoxal phosphate, 1 mM DTT.
Series [2] has as its system T1, N[C@@H](Cc1c[nH]c2ccccc12)C(=O)O.
T1 construct: full length, N-terminal 6xHis tag, codon-optimised gene, pACYCDuet-1, E. coli BL21(DE3), Ni-NTA; TNAs are homotetramers
Kind of series: purified protein. The series is classed as biochemical, Proteus vulgaris. The note with it: 100 mM KPi pH 7.8, 30 °C, 0.05 mM pyridoxal phosphate, 1 mM DTT.

EcTNA (Escherichia coli K-12): in series [1], the Km came to 140 ± 10 µM, the kcat worked out at 1.65 s⁻¹ and the catalytic efficiency (kcat/Km) stood at 11800 M⁻¹ s⁻¹.

With PvTNA (Proteus vulgaris), in series [2], the Km came to 30 ± 3 µM, the catalytic constant (kcat) was found to be 0.78 ± 0.02 s⁻¹ and the kcat/Km is 26000 ± 5800 M⁻¹ s⁻¹.

The values above are taken from publication PMC8944080, “Production of indole by Corynebacterium glutamicum microbial cell factories for flavor and fragrance applications” (Microbial Cell Factories, 2022).
